Laboratory results: patent US20080248034A1 (MORPHOTEK, published 2008)
Each block holds one binder with its values, some of them ahead of it.

B2: Fc-TEM1 (soluble recombinant endosialin: full-length TEM1 extracellular domain fused to monomeric murine IgG2b Fc) (Fc fusion, human)
chain: QDPWAAEPRAACGPSSCYALFPRRRTFLEAWRACRELGGDLATPRTPEEAQRVDSLVGAGPASRLLWIGLQRQARQCQLQRPLRGFTWTTGDQDTAFTNWAQPASGGPCPAQRCVALEASGEHRWLEGSCTLAVDGYLCQFGFEGACPALQDEAGQAGPAVYTTPFHLVSTEFEWLPFGSVAAVQCQAGRGASLLCVKQPEGGVGWSRAGPLCLGTGCSPDNGGCEHECVEEVDGHVSCRCTEGFRLAADGRSCEDPCAQAPCEQQCEPGGPQGYSCHCRLGFRPAEDDPHRCVDTDECQIAGVCQQMCVNYVGGFECYCSEGHELEADGISCSPAGAMGAQASQDLGDELLDDGEDEEDEDEAWKAFNGGWTEMPGILWMEPTQPPDFALAYRPSFPEDREPQIPYPEPTWPPPLSAPRVPYHSSVLSVTRPVVVSATHPTLPSAHQPPVIPATHPALSRDHQIPVIAANYPDLPSAYQPGILSVSHSAQPPAHQPPMISTKYPELFPAHQSPMFPDTRVAGTQTTTHLPGIPPNHAPLVTTLGAQLPPQAPDALVLRTQATQLPIIPTAQPSLTTTSRSPVSPAHQISVPAATQPAALPTLLPSQSPTNQTSPISPTHPHSKAPQIPREDGPSPKLALWLPSPAPTAAPTALGEAGLAEHSQRDDRWLDDDD
notes: extracellular domain; Monomeric secreted fusion protein made in CHO cells; also called TEM1-Fcγ; not shown: murine IgG2b Fcγ domain (hinge through CH3), modified: the four cysteine residues responsible for inter-heavy chain disu

What was measured:
[1] = target: B2; test: antigen-specific ELISA, coated at 2 ug/ml (FIG. 4B)
[2] = target: T1, 120 kDa fibronectin fragment containing the cell attachment domain (UniProt P02751-1 722-1635, limits assumed); test: ELISA on coated FN fragments (FIG. 7A)
T1 construct: domain: 120 kDa fragment containing the cell attachment domain; Bought fragment; also called the 120 kDa fragment; 120 kDa cell attachment FN-fragment

[3] = target: T2, murine TEM-1 (in mouse 2H11 cells) (mouse, UniProt Q91V98 18-765); test: Western blot of cell lysates (FIG. 15)
T2 construct: Endogenous protein in lysate of mouse 2H11 cells, on a Western blot; also called murine endosialin
T2 sequence: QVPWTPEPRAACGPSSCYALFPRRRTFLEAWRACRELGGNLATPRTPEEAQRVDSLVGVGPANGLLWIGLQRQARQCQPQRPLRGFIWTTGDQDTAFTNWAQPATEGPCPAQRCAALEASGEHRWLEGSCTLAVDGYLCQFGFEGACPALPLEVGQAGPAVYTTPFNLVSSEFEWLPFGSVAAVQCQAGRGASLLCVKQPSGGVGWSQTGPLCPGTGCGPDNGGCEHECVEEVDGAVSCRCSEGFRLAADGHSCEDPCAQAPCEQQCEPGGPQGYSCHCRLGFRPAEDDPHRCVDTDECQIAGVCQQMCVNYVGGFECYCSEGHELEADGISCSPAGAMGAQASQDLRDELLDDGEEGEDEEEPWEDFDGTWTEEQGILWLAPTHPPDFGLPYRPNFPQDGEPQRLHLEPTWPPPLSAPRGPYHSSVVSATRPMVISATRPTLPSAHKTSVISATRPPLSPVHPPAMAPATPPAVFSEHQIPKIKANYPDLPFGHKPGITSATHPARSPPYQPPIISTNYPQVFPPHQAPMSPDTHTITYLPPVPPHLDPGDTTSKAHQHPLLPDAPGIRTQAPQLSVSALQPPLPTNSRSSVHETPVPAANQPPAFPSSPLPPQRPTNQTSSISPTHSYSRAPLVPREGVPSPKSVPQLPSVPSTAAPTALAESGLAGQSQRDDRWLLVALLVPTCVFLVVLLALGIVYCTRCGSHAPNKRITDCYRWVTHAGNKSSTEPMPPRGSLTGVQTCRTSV

[4] = target: B2; test: ELISA on coated FN fragments (FIG. 7A)
[5] = target: B2; test: antigen-specific ELISA, coated at 0.2 ug/ml (FIG. 4B)

T1 sequence (P02751 other isoform, or with tags, fused parts or gaps limits assumed): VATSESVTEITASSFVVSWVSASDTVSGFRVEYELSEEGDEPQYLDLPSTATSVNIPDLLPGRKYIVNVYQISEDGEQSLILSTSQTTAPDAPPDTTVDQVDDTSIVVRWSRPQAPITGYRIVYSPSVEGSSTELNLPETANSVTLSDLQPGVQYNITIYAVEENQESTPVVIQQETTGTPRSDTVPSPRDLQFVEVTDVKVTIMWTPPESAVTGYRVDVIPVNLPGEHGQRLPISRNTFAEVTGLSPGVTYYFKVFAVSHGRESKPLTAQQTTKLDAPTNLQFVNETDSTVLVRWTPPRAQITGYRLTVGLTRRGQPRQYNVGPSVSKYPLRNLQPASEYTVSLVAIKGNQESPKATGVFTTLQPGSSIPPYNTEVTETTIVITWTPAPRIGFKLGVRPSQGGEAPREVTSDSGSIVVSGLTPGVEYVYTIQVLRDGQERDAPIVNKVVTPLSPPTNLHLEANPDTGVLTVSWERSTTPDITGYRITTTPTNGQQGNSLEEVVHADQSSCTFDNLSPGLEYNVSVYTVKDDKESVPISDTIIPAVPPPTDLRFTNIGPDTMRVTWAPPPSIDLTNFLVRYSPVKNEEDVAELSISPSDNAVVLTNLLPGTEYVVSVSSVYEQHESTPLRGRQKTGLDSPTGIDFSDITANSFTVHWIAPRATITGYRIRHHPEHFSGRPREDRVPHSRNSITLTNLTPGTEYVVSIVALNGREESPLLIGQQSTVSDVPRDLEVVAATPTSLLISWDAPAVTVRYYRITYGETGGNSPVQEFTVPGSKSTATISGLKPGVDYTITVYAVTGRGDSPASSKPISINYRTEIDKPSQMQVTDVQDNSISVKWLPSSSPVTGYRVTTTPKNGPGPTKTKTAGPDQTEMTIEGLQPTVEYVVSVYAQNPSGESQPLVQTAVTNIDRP

Binder: B2
- binding result [2]: no binding (tested: 1.25 ug/ml)

B3: M4.1 (humanized antibody to human endosialin) (antibody, human IgG1, kappa)
heavy: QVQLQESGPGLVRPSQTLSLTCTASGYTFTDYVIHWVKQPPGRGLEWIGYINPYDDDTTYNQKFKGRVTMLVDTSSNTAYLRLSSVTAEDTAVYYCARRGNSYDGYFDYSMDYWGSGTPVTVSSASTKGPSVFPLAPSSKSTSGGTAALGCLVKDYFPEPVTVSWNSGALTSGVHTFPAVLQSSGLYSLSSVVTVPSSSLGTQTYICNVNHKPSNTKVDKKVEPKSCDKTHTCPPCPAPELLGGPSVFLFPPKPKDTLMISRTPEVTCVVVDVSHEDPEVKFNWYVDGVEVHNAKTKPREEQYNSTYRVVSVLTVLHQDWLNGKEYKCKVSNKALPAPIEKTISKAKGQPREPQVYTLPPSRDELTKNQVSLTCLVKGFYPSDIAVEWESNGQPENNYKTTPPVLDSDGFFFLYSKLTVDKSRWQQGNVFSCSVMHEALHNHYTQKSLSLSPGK
light: DIQMTQSPSSLSASVGDRVTITCRASQNVGTAVAWLQQTPGKAPKLLIYSASNRYTGVPSRFSGSGSGTDYTFTISSLQPEDIATYYCQQYTNYPMYTFGQGTKVQIKRTVAAPSVFIFPPSDEQLKSGTASVVCLLNNFYPREAKVQWKVDNALQSGNSQESVTEQDSKDSTYSLSSTLTLSKADYEKHKVYACEVTHQGLSSPVTKSFNRGEC
notes: also called antibody M4.1
- binding result [3]: no binding (tested: 3.3 ug/mL)

B4: recombinant human fibronectin fragment 4 (Fn4) (other)
chain: VTDATETTITISWRTKTETITGFQVDAVPANGQTPIQRTIKPDVRSYTITGLQPGTDYKIYLYTLNDNARSSPVVIDASTAIDAPSNLRFLATTPNSLLVSWQPPRARITGYIIKYEKPGSPPREVVPRPRPGVTEATITGLEPGTEYTIYVIALKNNQKSEPLIGRKKTDELPQLVTLPHPNLHGPEILDVPSTVQKTPFVTHPGYDTGNGIQLPGTSGQQPSVGQQMIFEEHGFRRTTPPTTATPIRHRPRPYPPNVGEEIQIGHIPREDVDYHLYPHGPGLNPNASTGQEALSQTTISWAPFQDTSEYIISCHPVGTDEEPLQFRVPGTSTSATLTGLTRGATYNIIVEALKDQQRHKVREEVVTVGNSVNEGLNQPTDDSCFDPYTVSHYAVGDEWERMSESGFKLLCQCLGFGSGHFRCDSSRWCHDNGVNYKIGEKWDRQGENGQMMSCTCLGNGKGEFKCDPHEATCYDDGKTYHVGEQWQKEYLGAICSCTCFGGQRGWRCDNCRRPGGEPSPEGTTGQSYNQYSQRYHQRTNTNVNCPIECFMPLDVQADREDSRE
notes: Bought (R&D Systems)
- binding result [4]: no binding (tested: 1.25 ug/ml)

B5: recombinant human fibronectin fragment 2 (Fn2) (other)
chain: SSSGPVEVFITETPSQPNSHPIQWNAPQPSHISKYILRWRPKNSVGRWKEATIPGHLNSYTIKGLKPGVVYEGQLISIQQYGHQEVTRFDFTTTSTSTPVTSNTVTGETTPFSPLVATSESVTEITASSFVVSWVSASDTVSGFRVEYELSEEGDEPQYLDLPSTATSVNIPDLLPGRKYIVNVYQISEDGEQSLILSTSQTTAPDAPPDPTVDQVDDTSIVVRWSRPQAPITGYRIVYSPSVEGSSTELNLPETANSVTLSDLQPGVQYNITIYAVEENQESTPVVIQQETTGTPRSDTVPSPRDLQFVEVTDVKVTIMWTPPESAVTGYRVDVIPVNLPGEHGQRLPISRNTFAEVTGLSPGVTYYFKVFAVSHGRESKPLTAQQTTKLDAPTNLQFVNETDSTVLVRWTPPRAQITGYRLTVGLTRRGQPRQYNVGPSVSKYPLRNLQPASEYTVSLVAIKGNQESPKATGVFTTLQPGSSIPPYNTEVTETTIVITWTPAPRIGFKLGVRPSQGGEAPREVTSDSGSIVVSGLTPGVEYVYTIQVLRDGQERDAPIVNKVVTPLSPPTNLHLEANPDTGVLTVSWERSTTPDITGYRITTTPTNGQQGNSLEEVVHADQSSCTFDNLSPGLEYNVSVYTVKDDKESVPISDTIIP
notes: Bought (R&D Systems)
- binding result [4]: no binding (tested: 1.25 ug/ml)

Other lines, results leading:

- binding result [1]: no binding (tested: 5, 10, 50 ug/ml)
B1: ovalbumin (OVA) (other, UniProt P01012 2-386, looked up)
chain: GSIGAASMEFCFDVFKELKVHHANENIFYCPIAIMSALAMVYLGAKDSTRTQINKVVRFDKLPGFGDSIEAQCGTSVNVHSSLRDILNQITKPNDVYSFSLASRLYAEERYPILPEYLQCVKELYRGGLEPINFQTAADQARELINSWVESQTNGIIRNVLQPSSVDSQTAMVLVNAIVFKGLWEKAFKDEDTQAMPFRVTEQESKPVQMMYQIGLFRVASMASEKMKILELPFASGTMSMLVLLPDEVSGLEQLESIINFEKLTEWTSSNVMEERKIKVYLPRMKMEEKYNLTSVLMAMGITDVFSSSANLSGISSAESLKISQAVHAAHAEINEAGREVVGSAEAGVDAASVSEEFRADHPFLFCIKHIATNAVLFFGRCVSP

- binding result [5]: no binding (tested: 5, 10, 50 ug/ml)
B6: human mesothelin (other, UniProt Q13421 296-598, looked up)
chain: EVEKTACPSGKKAREIDESLIFYKKWELEACVDAALLATQMDRVNAIPFTYEQLDVLKHKLDELYPQGYPESVIQHLGYLFLKMSPEDIRKWNVTSLETLKALLEVNKGHEMSPQVATLIDRFVKGRGQLDKDTLDTLTAFYPGYLCSLSPEELSSVPPSSIWAVRPQDLDTCDPRQLDVLYPKARLAFQNMNGSEYFVKIQSFLGGAPTEDLKALSQQNVSMDLATFMKLRTDAVLPLTVAEVQKLLGPHVEGLKAEERHRPVRDWILRQRQDDLDTLGLGLQGGIPNGYLVLDLSMQEALS
